Source: patent US20050032692A1

What was measured:
Cdk1 protein = Cdk1 protein (UniProt P06493); assay: cell-based or functional assay
[1] = molecular target: CBP protein (CREB Binding Protein); assay: cell-based or functional assay

Sequence of Cdk1 protein (P06493 whole entry): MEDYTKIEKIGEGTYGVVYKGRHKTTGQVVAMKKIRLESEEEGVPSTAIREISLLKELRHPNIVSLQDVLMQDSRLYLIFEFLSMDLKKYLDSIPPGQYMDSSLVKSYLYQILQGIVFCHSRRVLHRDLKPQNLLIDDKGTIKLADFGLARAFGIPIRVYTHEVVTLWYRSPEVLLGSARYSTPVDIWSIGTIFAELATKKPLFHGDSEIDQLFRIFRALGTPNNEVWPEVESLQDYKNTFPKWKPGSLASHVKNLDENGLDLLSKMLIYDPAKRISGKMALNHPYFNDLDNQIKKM

| Substance | FoxM1B transcriptional activity (6x FoxM1B TATA-luciferase reporter, U2OS cells) (Cdk1 protein) [% reduction] | FoxM1B transcriptional activity (6x FoxM1B TATA-luciferase reporter, U2OS cells) (% stimulation) [1] |
| --- | --- | --- |
| CMV T7-FoxM1B L641A mutant protein (from UniProt Q08050 1-763) | 80 |  |
| T7-FoxM1B WT protein (CMV T7-FoxM1B WT) (from UniProt Q08050 1-763) |  | 50 |
